Literature values as cited in patent US20010039026A1, “Assay method” (priority 2000, published 2001).

Legend:
CCCKR5 = molecular target: T1, CCCKR5 (Homo sapiens, UniProt P51681); details: transfected CHO-K1 cells
T1 construct: expressed in transfected cells; host or cells: CHO-K1 (stably transfected)

[1] = test system: primary, nonsyncytium-inducing (NSI) HIV-1 strains; details: primary NSI HIV-1 strains
[2] = test system: env-mediated cell-cell fusion

T1 sequence (P51681 whole entry): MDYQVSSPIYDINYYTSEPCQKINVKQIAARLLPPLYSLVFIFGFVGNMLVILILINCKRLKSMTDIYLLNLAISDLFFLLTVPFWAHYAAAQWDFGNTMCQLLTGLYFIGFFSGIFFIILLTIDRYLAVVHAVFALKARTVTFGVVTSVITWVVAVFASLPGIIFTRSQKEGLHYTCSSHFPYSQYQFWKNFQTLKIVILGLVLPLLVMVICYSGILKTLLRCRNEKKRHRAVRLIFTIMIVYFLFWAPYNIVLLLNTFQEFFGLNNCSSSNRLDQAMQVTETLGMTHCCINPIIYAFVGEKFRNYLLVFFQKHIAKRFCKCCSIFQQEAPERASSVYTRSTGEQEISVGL

B1: MIP-1-β: macrophage inflammatory protein, β-chemokine ligand of CCR5 (protein, UniProt P13236 24-92, looked up)
C-C motif chemokine 4: APMGSDPPTACCFSYTARKLPRNFVVDYYETSSLCSQPAVVFQTKRSKQVCADPSESWVQEYVYDLELN
CCCKR5
  agonist activity at CCCKR5: active at physiologic concentrations
[1]
  inhibition of infection of CD4(+) cells at the virus entry stage: inhibit infection
[2]
  block of env-mediated cell-cell fusion: block env-mediated cell-cell fusion
